Laboratory results reported in US20100137208A1, “INTRATUMORALLY ADMINISTERED LACTOFERRIN IN THE TREATMENT OF MALIGNANTNEOPLASMS AND OTHER HYPERPROLIFERATIVE DISEASES” (priority 2002, published 2010).

Legend:
[1] = test system: O12 human oropharyngeal squamous cell carcinoma tumor cells; experiment: Intratumoral rhLF in O12 tumors in nude mice; type: in vivo, athymic nude mice
Method: O12 human oropharyngeal squamous cell carcinoma tumor cells were injected to the right flank of athymic nude mice. Recombinant human lactoferrin and vehicle controls were dosed via intratumoral injection. Each animal was administered different concentrations of rhLF in 50 μL doses consisting of four separate injections of approximately 12.5 μL of the dose, at different directions and angles (approximately S/N/E/W) to ensure that the dose was distributed evenly throughout the tumor (fanning).
In this study, rhLF was administered directly into the tumor. Each animal was tracked daily for tumor growth by external caliper measurements of the protruding tumor.

[2] = test system: circulating lymphocytes; experiment: Circulating lymphocytes following intratumoral rhLF in tumor-bearing mice; type: in vivo, C3H/HeJ mice
Method: Normal C3H/HeJ mice were implanted with one of two mouse tumors following the methodology described in Example 17. Tumors used were SCCVII and RIF mouse tumor cell lines. Following establishment of the tumors in the mice, tumors were injected intratumorally daily for 4 days with 250 or 500 μg rhLF per dose or with vehicle control. Twenty four hours following the last intratumoral injection, animals were sacrificed and the blood examined for lymphocyte populations. The number of circulating lymphocytes were increased by 34% to 56% relative to the placebo treated control animals (Table 14).

[3] = test system: murine squamous carcinoma cell line (SCCVII); experiment: SCCVII floor-of-mouth tumor growth, oral rhLF and/or radiotherapy; type: in vivo, C3H mice
Method: A murine squamous carcinoma cell line (SCCVII) was injected into the floor of mouth through the neck skin of immunocompetent C3H mice (Day 0). […] Tumors were measured in three dimensions with calipers.
Tumor-bearing mice were randomized into six groups receiving rhLF (200 mg/Kg) and/or radiotherapy as described below. RhLF (4 mg; 200 mg/kg) was administered by oral gavage once daily for 8 days on days 5 through 12. Radiotherapy was administered as single dose of 2 Gray given at the beginning (day 5) or at during (day 8) rhLF-therapy. Animals were sacrificed on day 14 post-treatment and the residual tumor masses were measured and processed for later additional analyses.

[4] = blood, 24 h after 4 daily intratumoral doses of 250 or 500 μg, SCCVII or RIF tumors

B1: rhLF: recombinant human lactoferrin, a single chain metal binding glycoprotein (protein, UniProt P02788 20-710, looked up)
Lactotransferrin: GRRRSVQWCAVSQPEATKCFQWQRNMRKVRGPPVSCIKRDSPIQCIQAIAENRADAVTLDGGFIYEAGLAPYKLRPVAAEVYGTERQPRTHYYAVAVVKKGGSFQLNELQGLKSCHTGLRRTAGWNVPIGTLRPFLNWTGPPEPIEAAVARFFSASCVPGADKGQFPNLCRLCAGTGENKCAFSSQEPYFSYSGAFKCLRDGAGDVAFIRESTVFEDLSDEAERDEYELLCPDNTRKPVDKFKDCHLARVPSHAVVARSVNGKEDAIWNLLRQAQEKFGKDKSPKFQLFGSPSGQKDLLFKDSAIGFSRVPPRIDSGLYLGSGYFTAIQNLRKSEEEVAARRARVVWCAVGEQELRKCNQWSGLSEGSVTCSSASTTEDCIALVLKGEADAMSLDGGYVYTAGKCGLVPVLAENYKSQQSSDPDPNCVDRPVEGYLAVAVVRRSDTSLTWNSVKGKKSCHTAVDRTAGWNIPMGLLFNQTGSCKFDEYFSQSCAPGSDPRSNLCALCIGDEQGENKCVPNSNERYYGYTGAFRCLAENAGDVAFVKDVTVLQNTDGNNNEAWAKDLKLADFALLCLDGKRKPVTEARSCHLAMAPNHAVVSRMDKVERLKQVLLHQQAKFGRNGSDCPDKFCLFQSETKNLLFNDNTECLARLHGKTTYEKYLGPQYVAGITNLKKCSTSPLLEACEFLRK
- reduction of rates of tumor growth versus pooled placebo ([1]; Group A, single intratumoral dose (100-500 μg), day 11 after the administration): 50%
- reduction of rates of tumor growth versus pooled control group ([1]; Group C, intratumoral twice daily for 8 days (25-500 μg per dose)): 56%
- increase in number of circulating lymphocytes relative to placebo ([2]; across CD3+, CD4+, CD8+ populations): 34% to 56
- Number of Cells CD3+ [2, 4]: 3291
- Number of Cells CD4+ [2, 4]: 2621
- Number of Cells CD8+ [2, 4]: 1054
- Increase with rhLF, CD3+ cells ([2]; relative to placebo): 56%
- Increase with rhLF, CD4+ cells ([2]; relative to placebo): 46%
- Increase with rhLF, CD8+ cells ([2]; relative to placebo): 34%
- increase in TGI over monotherapy with radiation ([3]; both rhLF and radiation): 15%
- increase in TGI over monotherapy with rhLF ([3]; both rhLF and radiation): 28%
- Inhibition Relative to Placebo ([3]; rhLF 200 mg/kg oral days 5-12 plus 2 Gray on day 5): 68%
- Inhibition Relative to Placebo ([3]; rhLF 200 mg/kg oral days 5-12 plus 2 Gray on day 8): 66%
- Inhibition Relative to Placebo ([3]; rhLF 200 mg/kg oral days 5-12 plus 2 Gray, both radiation schedules pooled): 67%
- Inhibition Relative to Placebo ([3]; rhLF 200 mg/kg oral once daily days 5-12, no radiation): 54%
